Where “and” joins values, the source holds several entries; their conditions need not be identical. Equal entries are not always repeated.
T1: Human membrane IL-6R on cells (human, UniProt P08887 20-468)
T1 sequence (looked up): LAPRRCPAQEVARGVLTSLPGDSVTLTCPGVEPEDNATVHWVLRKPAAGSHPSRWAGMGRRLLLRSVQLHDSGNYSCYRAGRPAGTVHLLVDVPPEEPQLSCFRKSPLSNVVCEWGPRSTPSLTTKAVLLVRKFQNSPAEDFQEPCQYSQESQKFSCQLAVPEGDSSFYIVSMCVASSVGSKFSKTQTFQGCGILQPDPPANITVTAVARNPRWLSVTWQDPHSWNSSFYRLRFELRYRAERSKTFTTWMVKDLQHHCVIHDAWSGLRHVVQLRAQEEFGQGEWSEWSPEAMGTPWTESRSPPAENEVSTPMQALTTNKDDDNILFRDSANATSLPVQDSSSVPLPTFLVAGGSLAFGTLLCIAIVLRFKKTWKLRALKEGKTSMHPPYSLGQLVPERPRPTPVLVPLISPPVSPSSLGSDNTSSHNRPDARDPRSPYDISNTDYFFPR

T2: Human soluble IL-6R (human, UniProt P08887 20-358)
T2 construct: Soluble recombinant form; biotinylated in some assays; also called hIL-6R; human IL-6R
T2 sequence (looked up): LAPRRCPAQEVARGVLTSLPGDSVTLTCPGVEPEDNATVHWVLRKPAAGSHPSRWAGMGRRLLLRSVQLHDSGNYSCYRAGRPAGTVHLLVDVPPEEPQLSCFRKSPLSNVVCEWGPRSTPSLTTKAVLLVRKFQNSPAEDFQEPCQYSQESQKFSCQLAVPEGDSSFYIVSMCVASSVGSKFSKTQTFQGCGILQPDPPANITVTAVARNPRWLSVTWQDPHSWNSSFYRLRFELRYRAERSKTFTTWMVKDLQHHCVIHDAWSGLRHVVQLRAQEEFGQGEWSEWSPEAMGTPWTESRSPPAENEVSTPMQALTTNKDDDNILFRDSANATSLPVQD

T3: Mouse IL-6R (mouse, UniProt P22272 20-364, limits assumed)
T3 construct: also called mouse sIL-6R
T3 sequence (looked up): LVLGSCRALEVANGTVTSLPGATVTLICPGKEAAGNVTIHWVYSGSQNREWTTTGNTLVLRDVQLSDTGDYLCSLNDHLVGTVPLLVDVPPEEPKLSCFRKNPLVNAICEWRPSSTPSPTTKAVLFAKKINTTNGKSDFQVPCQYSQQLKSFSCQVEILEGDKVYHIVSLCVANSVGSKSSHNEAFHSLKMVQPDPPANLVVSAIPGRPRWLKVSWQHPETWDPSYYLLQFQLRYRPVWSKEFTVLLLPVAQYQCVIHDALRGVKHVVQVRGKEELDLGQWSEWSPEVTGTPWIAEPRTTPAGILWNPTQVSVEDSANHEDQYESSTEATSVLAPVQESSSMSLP


How the values were obtained:
[1] = target: T1, Human membrane IL-6R on cells; assay: cell-based or functional assay
[2] = target: T1, Human membrane IL-6R on cells; assay: cell-based or functional assay; remark: listed apart in the source
[3] = target: T1, Human membrane IL-6R on cells; assay: cell-based or functional assay; remark: listed apart in the source
[4] = target: T2, Human soluble IL-6R; assay: SPR Biacore 3000, IL-6R amine-coupled to CM5
Protocol: (§1) Nanobodies were injected at 5 different concentrations between 1 and 50 nM. Flow rate was 45 μl/min in all experiments. Association and dissociation phase were 3 and 10 min, respectively. The chip was regenerated using Glycine/HCl pH 1.5.

[5] = target: T2, Human soluble IL-6R; assay: Alphascreen, inhibition of bio-IL-6 binding to IL-6R
Protocol: (§2) Finally streptavidin donor beads were added and after 1 hour incubator the plate was read on the Envision microplate reader.

[6] = target: T2, Human soluble IL-6R; assay: summary table C-13 of Nanobody characteristics, Kd on IL-6R
Protocol: as §1

[7] = target: T2, Human soluble IL-6R; assay: inhibition of the IL-6/IL-6R interaction, summary table C-13
Protocol: as §2

[8] = target: T2, Human soluble IL-6R; assay: competition for IL-6R, competitor reference Fab, summary table C-13
[9] = target: T2, Human soluble IL-6R; assay: Alphascreen, 100 nM Nanobody, 0.4 nM bio-IL-6R; competitor: reference Fab
[10] = target: T3, Mouse IL-6R; assay: ELISA: plate coated with 1 µg/ml mouse IL-6R, 500 nM Nanobody, anti-myc + anti-mouse-HRP
Protocol: Detection was performed with anti-myc and anti-mouse-HRP as first and second antibody respectively.

[11] = target: T2, Human soluble IL-6R; assay: Biacore off-rate, periplasmic extract
[12] = target: T2, Human soluble IL-6R; assay: Biacore off-rate, periplasmic extracts

Binder | IC50 (nM), XG-1 cell proliferation [1] | IC50 (nM), TF1 cell proliferation [2] | IC50 (nM) XG-1 [3] | Kd [4] | koff [4] | kon [4] | IC50 [5] | Kd [6] | IC50 [7] | Ref Fab competition (%) [8] | Residual reference-Fab binding to IL-6R (%) [9] | binding result [10] | koff [11] | IC50 (nM) + HSA, XG-1 cell proliferation [1] | koff [12]
IL6R08 (VHH, also called PMP34A12; not shown: C-terminal c-myc and (His)6 tags) VHH: EVQLVESGGGLVQPGGSLRLSCVASGFSLDYYVIGWFRQAPGKEREGVSCISSSDGSTYYADSVKGRFTISRDNAKNTVYLQMNSLKPEDTAVYYCAADLLRTPEFCVDSAPYDYWGQGTQVTVSS | 36.6 nM | 24.3 nM | 36.6 nM | 10.2 nM | 0.00197 s⁻¹ | 194000 M⁻¹ s⁻¹ | 1.18 nM | 10.2 nM | 1.18 nM | 99% | 99% | no binding (tested: 500 nM) | – | – | –
IL6R05 (VHH, also called PMP32E10; not shown: C-terminal c-myc and (His)6 tags) VHH: EVQLVESGGGLVQPGGSLRLSCAASGFTFGSYDMSWVRQAPGKGPEWVSAINSGGGSTYYADSVKGRFTISRDNAKNTLYLQMNSLKPEDTAVYYCATDWRYSDYDLPLPPPGDYWGQGTQVTVSS | 7.3 nM | 38 nM | 7.3 nM | 9.8 nM | 0.00141 s⁻¹ and 0.00127 s⁻¹ | 144000 M⁻¹ s⁻¹ | 0.626 nM | 9.8 nM | 0.63 nM | 64% | 64% | no binding (tested: 500 nM) | 0.00127 s⁻¹ | – | –
IL6R14 (VHH, also called PMP40H5; not shown: C-terminal c-myc and (His)6 tags) VHH: EVQLVESGGGLVQPGGSLRLSCAASGFSLDYYAIGWFRQAPGKEREGVSCMDSSSGTTSTYYSDSVKGRFTISRDDAKNTVYLQMNSLKPEDTAVYYCAADGHLNWGQRYVPCSQISWRGWNDYWGQGTQVTVSS | 0.6 nM | 1.5 nM | 0.6 nM | 0.3 nM | 0.0001 s⁻¹ and 0.000114 s⁻¹ | 402000 M⁻¹ s⁻¹ | 0.222 nM | 0.3 nM | 0.22 nM | 96% | 96% | no binding (tested: 500 nM) | 0.000114 s⁻¹ | 0.8 nM | –
IL6R09 (VHH, also called PMP34G9; not shown: C-terminal c-myc and (His)6 tags) VHH: EVQLVESGGGLVQAGGSLRLSCAASGRTSSSYDMTWYRQVPGKEREFVAVISWSGGSTYYADSVKGRFTISRDNAKNTVYLQMNSLKPEDTAIYYCNAYTGGGDDYWGQGTQVTVSS | 2.7 nM | 8.7 nM | 2.7 nM | 2 nM and 1.2 nM | 0.00129 s⁻¹ and 0.0013 s⁻¹ and 0.00139 s⁻¹ | 641000 M⁻¹ s⁻¹ and 1.11e+06 M⁻¹ s⁻¹ | 0.238 nM | 2 nM | 0.24 nM | 62% | 62% | no binding (tested: 500 nM) | 0.00139 s⁻¹ | 3 nM | –
IL6R10 (VHH, also called PMP35C10; not shown: C-terminal c-myc and (His)6 tags) VHH: EVQLVESGGGLVQAGGSLRLSCAASGRTFSSYDMGWYRQAPGKEREFVAVIHWSSGSTYYADPVKGRFTISRDNAKNTVYLQMNSLKPEDTAIYYCNAFLPGPEGFHDYWGQGTQVTVSS | 2.5 nM | 9.9 nM | 2.5 nM | 1.3 nM | 0.000526 s⁻¹ and 0.000509 s⁻¹ | 414000 M⁻¹ s⁻¹ | 0.596 nM | 1.3 nM | 0.6 nM | 102% | 102% | no binding (tested: 500 nM) | 0.000509 s⁻¹ | – | –
IL6R07 (VHH, also called PMP33A3; not shown: C-terminal c-myc and (His)6 tags) VHH: EVQLVESGGGLVQPGGSLRLSCAASGFTLDYGAIGWFRQAPGKEREGVSCISSSTGSTYYADSVKGRFTISRDNGKNTVYLQMNSLKPEDTAVYYCAADKMWSPCLVAANEEALFEYDYWGQGTQVTVSS | 50.5 nM | 375 nM | 50.5 nM | – | 0.000242 s⁻¹ | – | 1.44 nM | – | 1.44 nM | 80% | 80% | no binding (tested: 500 nM) | 0.000242 s⁻¹ | – | –
IL6R85 (VHH, IL6R13 variant, tested as periplasmic extract) VHH: EVQLVESGGGLVQPGGSLRLSCAASGFTFDDYGMSWVRQAPGRGLEWVSAISWNGNNTYYTESMKGRFTISRDNAKNTLYLQMNSLRPEDTAVYYCVKGSTAIVGVPPTYPDEYDYWGQGTLVTVSS | – | – | – | – | – | – | – | – | – | – | – | – | – | – | 0.0021 s⁻¹
IL6R12 (VHH, also called PMP35F4; not shown: C-terminal c-myc and (His)6 tags) VHH: EVQLVESGGGLVQAGGSLRLSCAASGRTFSSYDMGWYRQAPGKEREFVAIITWNSSTYYADSVKGRFTISRDNAKNTVYLQMNSLKPEDTAIYYCNAQYGLGYAEDYWGQGTQVTVSS | 2.8 nM | 6.8 nM | 2.8 nM | 1.7 nM | 0.00116 s⁻¹ and 0.000896 s⁻¹ | 678000 M⁻¹ s⁻¹ | 0.517 nM | 1.7 nM | 0.52 nM | 103% | 103% | no binding (tested: 500 nM) | 0.000896 s⁻¹ | – | –
IL6R11 (VHH, also called PMP35E11; not shown: C-terminal c-myc and (His)6 tags) VHH: EVQLVESGGGLVQAGGSLRLSCAASGFTFDDYAIGWFRQAPGKEHEGVSCISSSDGSTYYADSVKGRFTISSDNAKNTVYLQMNSLKPEDTAVYYCAAERDVPARSLCGSYYWYDYRGQGTQVTVSS | 5.4 nM | 9.9 nM | 5.4 nM | 0.9 nM and 1.9 nM | 0.00034 s⁻¹ and 0.000396 s⁻¹ and 0.000417 s⁻¹ | 391000 M⁻¹ s⁻¹ and 215000 M⁻¹ s⁻¹ | 0.158 nM | 0.9 nM | 0.16 nM | 40% | 40% | no binding (tested: 500 nM) | 0.000417 s⁻¹ | – | –
